In publication PMC4803055 one finds Kd data, which are given here for one molecule.

This data set concerns the target T1, Mte1 (YGR042W) (Saccharomyces cerevisiae, UniProt P53227 1-271).
T1 sequence: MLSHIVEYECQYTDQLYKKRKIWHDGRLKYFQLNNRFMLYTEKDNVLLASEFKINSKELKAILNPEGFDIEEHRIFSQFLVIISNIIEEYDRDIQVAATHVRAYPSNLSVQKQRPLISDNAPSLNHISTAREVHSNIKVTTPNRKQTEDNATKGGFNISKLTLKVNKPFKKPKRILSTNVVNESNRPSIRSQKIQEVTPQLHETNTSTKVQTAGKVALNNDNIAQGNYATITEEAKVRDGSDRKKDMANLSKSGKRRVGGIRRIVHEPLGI
The data set is described as follows: EMSA. On the technique in general: In EMSA bound probe runs differently from free probe, usually more slowly.

For the molecule AGCTATGACCATGATTACGAATTGCTTAATTCGTGCAGGCATGGTAGCT (ssDNA) [ssDNA (oligo 1)], the affinity, expressed as Kd, was 16 ± 3 nM.

For orientation: Kd means the free concentration of one partner at which half of the binding sites on the other are occupied at equilibrium, for simple one-to-one binding.
